Results taken from paper PMC6072280 (Nuclear medicine and biology, 2018).

Tests used:
GRPR = GRPR (Homo sapiens, UniProt P30550); settings: GRPR-expressing human PC-3 cells, 125I-[Tyr4]-BBN, 1 h 37°C
in vivo = settings: male, ICR-SCID, mouse, iv, total radioactivity; for tissue uptake at 1 h / tissue uptake at 4 h / tissue uptake at 24 h: 20 μCi
[1] = system: PC-3 tumor-bearing SCID mice

GRPR, sequence (P30550 whole entry): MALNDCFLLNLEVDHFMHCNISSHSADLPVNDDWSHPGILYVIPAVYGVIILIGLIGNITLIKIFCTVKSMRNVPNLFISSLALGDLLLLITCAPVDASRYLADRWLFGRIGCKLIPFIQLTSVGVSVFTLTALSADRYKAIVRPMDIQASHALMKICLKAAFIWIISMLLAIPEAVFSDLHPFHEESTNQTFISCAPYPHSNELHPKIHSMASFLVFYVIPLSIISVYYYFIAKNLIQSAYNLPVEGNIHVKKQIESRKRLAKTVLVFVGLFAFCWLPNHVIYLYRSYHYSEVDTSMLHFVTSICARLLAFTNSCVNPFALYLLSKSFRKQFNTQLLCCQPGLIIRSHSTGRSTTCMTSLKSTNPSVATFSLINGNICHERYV

## CC(C)C[C@H](NC(=O)C[C@H](O)[C@H](CC(C)C)NC(=O)[C@H](Cc1c[nH]cn1)NC(=O)CNC(=O)[C@@H](NC(=O)[C@H](C)NC(=O)[C@H](Cc1c[nH]c2ccccc12)NC(=O)[C@H](CCC(N)=O)NC(=O)[C@@H](Cc1ccccc1)NC(=O)CCCCCNC(=O)[C@H](CCC(=O)NCCCC[C@@H]1NC(=O)[C@@H](Cc2ccc(O)cc2)NC(=O)[C@H](CC(=O)O)NC(=O)CNC(=O)[C@H](CCCNC(=N)N)NC1=O)NC(=O)CN1CCN(CC(=O)O)CCN(CC(=O)O)CCN(CC(=O)O)CC1)C(C)C)C(N)=O [[RGD-Glu-[DO3A]-6-Ahx-RM2]] [[Cyclo-(Arg-Gly-Asp-DTyr-Lys)-(DO3A)-Glu-(6-Ahx-D-Phe-Gln-Trp-Ala-Val-Gly-His-Sta-Leu-NH2)]]
GRPR
  IC50, PC-3: single-digit, nanomolar range

## CC(C)C[C@H](NC(=O)C[C@H](O)[C@H](CC(C)C)NC(=O)[C@H](Cc1c[nH]cn1)NC(=O)CNC(=O)[C@@H](NC(=O)[C@H](C)NC(=O)[C@H](Cc1c[nH]c2ccccc12)NC(=O)[C@H](CCC(N)=O)NC(=O)[C@@H](Cc1ccccc1)NC(=O)CCCCCNC(=O)[C@H](CCC(=O)NCCCC[C@@H]1NC(=O)[C@@H](Cc2ccc(O)cc2)NC(=O)[C@H](CC(=O)O)NC(=O)CNC(=O)[C@H](CCCNC(=N)N)NC1=O)NC(=O)CN1CCN(CC(=O)O)CCN(CC(=O)O)CCN(CC(=O)O)CC1)C(C)C)C(N)=O [[RGD-Glu-[[^90Y]Y-DO3A]-6-Ahx-RM2], metal not drawn]
In vivo; bone
  tissue uptake at 1 h: 0.45 ± 0.08 %ID/g
  tissue uptake at 4 h: 0.29 ± 0.05 %ID/g
  tissue uptake at 24 h: 0.33 ± 0.12 %ID/g
In vivo; brain
  tissue uptake at 1 h: 0.03 ± 0.01 %ID/g
  tissue uptake at 4 h: 0.01 %ID/g
In vivo; heart
  tissue uptake at 1 h: 0.31 ± 0.06 %ID/g
  tissue uptake at 4 h: 0.16 ± 0.05 %ID/g
  tissue uptake at 24 h: 0.15 ± 0.04 %ID/g
In vivo; kidneys
  tissue uptake at 1 h: 2.36 ± 0.49 %ID/g
  tissue uptake at 4 h: 1.54 ± 0.31 %ID/g
  tissue uptake at 24 h: 0.89 ± 0.21 %ID/g
In vivo; large intestine
  tissue uptake at 1 h: 0.64 ± 0.12 %ID/g
  tissue uptake at 4 h: 0.66 ± 0.26 %ID/g
  tissue uptake at 24 h: 0.31 ± 0.06 %ID/g
In vivo; liver
  tissue uptake at 1 h: 0.39 ± 0.08 %ID/g
  tissue uptake at 4 h: 0.35 ± 0.07 %ID/g
  tissue uptake at 24 h: 0.29 ± 0.15 %ID/g
In vivo; lung
  tissue uptake at 1 h: 0.8 ± 0.27 %ID/g
  tissue uptake at 4 h: 0.44 ± 0.06 %ID/g
  tissue uptake at 24 h: 0.37 ± 0.1 %ID/g
In vivo; muscle
  tissue uptake at 1 h: 0.22 ± 0.06 %ID/g
  tissue uptake at 4 h: 0.11 ± 0.02 %ID/g
  tissue uptake at 24 h: 0.1 ± 0.03 %ID/g
In vivo; pancreas
  tissue uptake at 1 h: 6.81 ± 0.92 %ID/g
  tissue uptake at 4 h: 0.55 ± 0.12 %ID/g
  tissue uptake at 24 h: 0.27 ± 0.05 %ID/g
In vivo; small intestine
  tissue uptake at 1 h: 1.41 ± 0.32 %ID/g
  tissue uptake at 4 h: 0.39 ± 0.09 %ID/g
  tissue uptake at 24 h: 0.34 ± 0.07 %ID/g
In vivo; spleen
  tissue uptake at 1 h: 1.36 ± 0.25 %ID/g
  tissue uptake at 4 h: 1.07 ± 0.18 %ID/g
  tissue uptake at 24 h: 1.21 ± 0.23 %ID/g
In vivo; stomach
  tissue uptake at 1 h: 1.19 ± 0.34 %ID/g
  tissue uptake at 4 h: 0.33 ± 0.07 %ID/g
  tissue uptake at 24 h: 0.22 ± 0.03 %ID/g
In vivo; tumor (PC-3 xenograft)
  tissue uptake at 1 h: 8.7 ± 0.35 %ID/g
  tissue uptake at 4 h: 4.48 ± 0.31 %ID/g
  tissue uptake at 24 h: 5.28 ± 0.12 %ID/g
In vivo; urine, 20 uCi
  dose excreted at 1 h: 84.6 ± 3.52%
  dose excreted at 4 h: 93.4 ± 1.26%
  dose excreted at 24 h: 92.7 ± 2.06%
In vivo; whole blood, 20 uCi
  tissue uptake dose at 1 h: 0.18 ± 0.04 %ID
  tissue uptake dose at 4 h: 0.01 %ID
  tissue uptake dose at 24 h: 0.01 %ID
[1]; 4 h p.i., i.v., n = 5
  Biodistribution, Urine (urinary excretion): 93.4 %ID
[1]; urine collected from tumor-bearing mice
  In vivo stability, RP-HPLC of urinary radioactivity: eluted with a similar retention time
